The values below come from paper PMC5653649, “Evolution of AF6-RAS association and its implications in mixed-lineage leukemia” (Nature Communications, 2017).

To fix the notation:
B1: AF6 RA1 domain (residues 37–136) (domain or fragment, UniProt Q9QZQ1 37-136, looked up)
chain: LEFHGVMRFYFQDKAAGNFATKCIRVSSTATTQDVIETLAEKFRPDMRMLSSPKYSLYEVHVSGERRLDIDEKPLVVQLNWNKDDREGRFVLKNENDAIP
notes: AF6/afadin first RAS association (RA1) domain, residues 37-136; 15N-labelled for the NMR titration; The monomer fraction was used for crystallisation; also called core RA1 domain; core AF6 RA domain; source: E. coli BL21, purified (glutathione resin, thrombin cleavage, size exclusion chromatography); not shown: GST, N-terminal, cleaved

Series [1] deals with the molecule itself. Nature of the series: SEC; size exclusion chromatography of the purified domain at several concentrations (S75 or S200 column). Background: Size exclusion chromatography separates by hydrodynamic size, large species first.
Series [2] addresses T1, H-RAS (residues 1–171), GMPPNP-loaded (human, UniProt P01112 1-171).
T1 construct: wild-type H-RAS, human cDNA, Gene ID 3265, residues 1-171; also called RAS-GMPPNP; source: E. coli BL21, purified (Ni-NTA, thrombin, size exclusion chromatography), loaded with GMPPNP; not shown: HIS tag, N-terminal, cleaved
Nature of the series: ITC; Microcal VP-ITC; RA domains titrated into GMPPNP-loaded RAS; 20 mM Tris-HCl pH 7.5, 100 mM NaCl, 5 mM MgCl2, 1 mM DTT; 25 °C. The conditions noted are these: both partners purified.

Series [3] deals with the molecule itself. Put plainly: native gel or EMSA; blue native PAGE (BN–PAGE), 15% acrylamide; proteins purified by size exclusion chromatography and concentrated to 100–150 μM. For orientation: Mobility shift assays separate free from complexed probe on a gel.
Series [4] addresses B1. Put plainly: NMR titration; AF6 6–36 fragment titrated into 15N-AF6 RA1; 1H/15N-HSQC; 25 °C; 20 mM Tris-HCl pH 7.5, 100 mM NaCl, 1 mM DTT, 5 mM MgCl2, 10% D2O. Conditions: both partners purified.

Consider B1, for which the stoichiometry N (usually the number of molecules, sites or subunits per partner or assembly) in series [1] turned out to be 2. In addition, the Kd (in general, the free concentration of one partner at which half of the binding sites on the other are occupied at equilibrium, for simple one-to-one binding) in series [2] was found to be 17.8 µM.

B2: BTBD18 (residues 97–134) fused upstream of the ARAF RBD domain (residues 17–94) (other, UniProt B2RXH4 97-134, looked up)
chain: EMEVSQEEAQDVLSAARQLRVSELESLQLEGGKLVKAPAVGTVKVYLPNKQRTVVTVRDGMSVYDSLDKALKVRGLNQDCCVVYRLIKGRKTVTAWDTAIAPLDGEELIVEVLEDV
notes: human BTBD18, Gene ID 643376, residues 97-134 (helix-turn-helix with a hydrophobic patch); source: E. coli BL21, purified (expressed from pGEX-4T2); not shown: GST, N-terminal, cleaved
As for B2, the “stoichiometry N” value in series [3] was 2.

B3: AF6 αN-extended RA1 domain (residues 6–136) (domain or fragment, UniProt Q9QZQ1 6-136, looked up)
chain: RDEERRKLADIIHHWNANRLDLFEISQPTEDLEFHGVMRFYFQDKAAGNFATKCIRVSSTATTQDVIETLAEKFRPDMRMLSSPKYSLYEVHVSGERRLDIDEKPLVVQLNWNKDDREGRFVLKNENDAIP
notes: AF6/afadin αN helix and RA1 domain, residues 6-136; also called αN-RA1; αN/RA1; source: E. coli BL21, purified (glutathione resin, thrombin cleavage, size exclusion chromatography); not shown: GST, N-terminal, cleaved
B3: in series [2], the Kd turned out to be 4.1 µM.

B4: AF6 αN helix fragment (residues 6–36) (domain or fragment, UniProt Q9QZQ1 6-36, looked up)
chain: RDEERRKLADIIHHWNANRLDLFEISQPTED
notes: AF6/afadin residues 6-36 encompassing the αN helix (31 residues); also called AF6 6–36; αN helix alone; source: E. coli BL21, purified (glutathione resin, thrombin cleavage, size exclusion chromatography); not shown: GST, N-terminal, cleaved
In the case of B4, the binding result in series [4] is listed as “binds”.
